{"source": "the DeepSol protein solubility set"}
{"assay": "soluble on expression in E. coli; label from the status in PepcDB or PDB records"}
{"sequence": "MIGRLRGIIIEKQPPLVLIEVGGVGYEVHMPMTCFYELPEAGQEAIVFTHFVVREDAQLLYGFNNKQERTLFKELIKTNGVGPKLALAILSGMSAQQFVNAVEREEVGALVKLPGIGKKTAERLIVEMKDRFKGLHGDLFTPAADLVLTSPASPATDDAEQEAVAALVALGYKPQEASRMVSKIARPDASSETLIREALRAAL", "soluble on expression in E. coli": "soluble"}
{"sequence": "MTVIQWFPGHMAKAKREVQEKLKLIDVAFELLDARVPMSSRNPMIDEILGQKPRLILLNKADMADEAVTEQWIRYFHDQGRLALPIDAQSGTGVRQIAAAAKEMVKDKFEKMRAKGIKNPRPVRALIVGIPNVGKSTLINRLAGRHIAKTGDKPGVTKAQQWIKVGKEMELLDTPGILWPKFEDEDVGYKLAVTGAIKDEILNLQDVAVYALRFLSTHYPNRLAERYGLDDIPDDIVALFDAIGRQRGCLTSGGAVDYDKVADIVLYDIRTEKLGRLSFETPASRT", "soluble on expression in E. coli": "not soluble"}
{"sequence": "MDHAPERFDATPPAGEPDRPALGVLELTSIARGITVADAALKRAPSLLLMSRPVSSGKHLLMMRGQVAEVEESMIAAREIAGAGSGALLDELELPYAHEQLWRFLDAPVVADAWEEDTESVIIVETATVCAAIDSADAALKTAPVVLRDMRLAIGIAGKAFFTLTGELADVEAAAEVVRERCGARLLELACIARPVDELRGRLFF", "soluble on expression in E. coli": "not soluble"}
{"sequence": "QLQEKLYVPVKEYPDFNFVGRILGPRGLTAKQLEAETGCKIMVRGKGSMRDKKKEEQNRGKPNWEHLNEDLHVLITVEDAQNRAELKLKRAVEEVKKLLVPAAEGEDSLKKMKLMELAILNGTYRDANLKSPALHHHHHH", "soluble on expression in E. coli": "soluble"}
{"sequence": "MACFSSLSTGVLDMYDLIIVGGGPSGASAGRVAGKAGISTLLIEKENFPRYKPCGGALSPYALSCLDFKLPEYLIEKDISRIRVHFRELCTEMQKDYSIALLVSRKAFDNFLLDKARETGIDIHSGEKVLDCEEGEECVEVRTSQNTYLAKFVLIAEGSEGVLKYSVRKRKDRRTEYDLALVSEIPERDKVIRKRFPNAIDMHFGIASGGYGWIFPHSEHYSVGIVGTAEHLKHPKAVMQDFLQANGFSGDFQVHSHIIPVGGIKRKTISSRILLSGDAAGFVDAFIGEGISYAIRSGQLAAENVAEIVLYNRKLSDLKEYETSCRKEFGNFLSSSLKLEKAMHRFPETSFRLALSRKEIIDKYLEEVVINRSHKDYVRWLLLNFSLSEPASKIKSIKDKNQLEHHHHHH", "soluble on expression in E. coli": "not soluble"}
{"sequence": "MDYNKTAKDILKLLGGEKNVMSAAHCATRLRLVLKNEKEARTKEIEKLDGVKGVFSSSGQYQIIIGQGSVNKVYKAFVEGTGISESSLSDTKKAAMKNM", "soluble on expression in E. coli": "not soluble"}
{"sequence": "MSLVRDIKTFKFFEVLLIYEMLEVLKALAMMNATRKVVKISSKELAEHIGQSLQTAARKLKELEDEGLIDRTLTKDGQFVVITEKGKQLLYKEYMDYKKIFDDEGTIKIKGEVFSGVGEGRYYVSLEGYRKQFREKLGFDPYPGTLNLRIPKEEMYFRRRLDEERGILIEGFSTEDRTFGEVKAFKCRINGIEGAIVIPKRTHYPAEILEVISPVKLRDKLGLKDGDFVEVEVILEGHHHHHH", "soluble on expression in E. coli": "soluble"}
{"sequence": "AIAAKDILGEAGLHFDELNKLRVLDPEVTQQTIELKEECKDFVDKIGQFQKIVGGLIELVDQLAKEAENEKMKAIGARNLLKSIAKQREAQQQQLQALIAEKKMQLERYRVEYEALCKVEAEQNEFIDQFIFQK", "soluble on expression in E. coli": "soluble"}
{"sequence": "MSLEGNLEELVYFYPPSTTPPAVGKYTQLISDLLQSVSIVDALPRGAAQAGILCQDTKEVLESENTVLEIAIPRQDNLVIVGDIHGQFADMLSNVLSIQLNLNNTKATDGRGSPSTEIYKFLFLGDYVDRGPQSLEVITLLFALKVEYPEHIFLLRGNHEEAQTSRLYGFFQECKSKLEGTGDRGPASVDITSSTWLQYNTVFCWLPLAAVVACPSGMFFCTHGGLSPHTLSVPLLRSLRRNEYGMVDDFEDTFYTPTSRGGDDMLEGPGAKARLVIDGLLWSDPEDQVSGCQMNNRGCGFIFGPDVTRSFLDRNYSYGFPPSKRQLIGEMKPGMQFILRGHQCAREGYMWCHGGLVLTLFSAPNYCGMHGNKGAVALLRGQVQAGKDRVELEFNVYDTVVRGGSDNLVACLSPFAFAHYFSGDSEGHHHHHH", "soluble on expression in E. coli": "soluble"}
{"sequence": "MFYEKIQTPAYILEEDKLRKNCELLASVGEKSGAKVLLALKGFAFSGAMKIVGEYLKGCTCSGLWEAKFAKEYMDKEIHTYSPAFKEDEIGEIASLSHHIVFNSLAQFHKFQAKTQKNSLGLRCNVEFSLAPKELYNPCGRYSRLGIRAKDFENVDLSTIEGLHFHALCEESAGALEAVLKVFEEKFGKWIGQMKWVNFGGGHHITKKGYDVEKLIALCKNFSDKYGVQVYLEPGEAVGWQTGNLVASVVDIIENEKQIAILDTSSEAHMPDTIIMPYTSEVLNARILATRENEKISDLKESEFSYLLTGNTCLAGDVMGEYAFDKKLKIGDKIVFLDQIHYTIVKNTTFNGIRLPNLMLLNAKNELQMIREFSYKDYSLRN", "soluble on expression in E. coli": "not soluble"}
{"sequence": "QSGHTKKINDKEMLDYKGRIPVGTLTLKFDQPVKDPILDFSGLGGYNIFSAHHEEASHEGIRNWEVRNGKIVVTGESASVVGAQINDQIRGSFNHTDLELETPGVKLVELAKNSNLKVDDRSISTVAANNDYVCNTPNDYQTLPEELENGPSYEQNDAFLSPVMKPAGCGSVLAQGEFSELKFTLFSSVEPMSSFAHDTHKTGLLYFAGGVNGGNANPVTPIPMLEGYSKPQEVSDTSNGDLFRMSIRLPEEPVKGSVSVGDFVWIDKDADGRQDDNEPGLAGVKLWLYGPDGGPVTDVHGKVVKSVTTGEDGKYSFKDLPVLTGSDSYTVKVVDVPAGYKPTLSGTGKVPAFKDSSTDLAKSTPGALSENGAQDLTLDFGFVKESATPSDPTVPGFK", "soluble on expression in E. coli": "not soluble"}
{"sequence": "MFEKGYVDENYIRVPKDRLFSFIVRVLTKLGVPEEDAKIVADNLVMADLRGVESHGVQRLKRYVDGIISGGVNLHPKIRVIREGPSYALIDGDEGLGQVVGYRSMKLAIKKAKDTGIGIVIARNSNHYGIAGYYALMAAEEGMIGISMTNSRPLVAPTGGIERILGTNPIALAAPTKDKPFLLDMATSVVPIGKLEVYRRKGKDIPEGWAINREGNITTKVEEVFNGGALLPLGGFGELLGGHKGYGLSLMVDILSGILSGGTWSKYVKNTSEKGSNVCHFFMVIDIEHFIPLEEFKEKISQMIEEIKSSRKHPEFERIWIHGEKGFLTMETRLKLGIPIYRKVLEELNEIAKRVGVEGL", "soluble on expression in E. coli": "soluble"}
{"sequence": "GPGSMEEGVDLREGLPEDVLAAVIAAPGQVTVEEARAQLNSSTSFRVDAGLVHLTADGAREQSQMETMLLKLATKIPPTGVSGAQFRAILEDEAPHFQPSAVGALSLKEAVQRYPRLFDVETDTTGKWFVRPAGVGKDGRASVGKNSGPISIINFCSERALMGNQADYVPLHVAMREESVASEGVLRDLVDSEELSKQLQIRFSVRLRPKRPVTNAFCFVDGDEIGLEAVDAIWKEMNLSDKSTRLVARQPTSRKHNSSDIVAPADMPTYAVVERKARELSLTQSVVLQDVIYMCSLRQFSLYADHIAKLNAFPDADVYVCCPSKVKLVAQKQFVPL", "soluble on expression in E. coli": "not soluble"}
{"sequence": "MDSETLPESEKYNPGPQDFLLKMPGVNAKNCRSLMHHVKNIAELAALSQDELTSILGNAANAKQLYDFIHTSFAEVVSKGKGKK", "soluble on expression in E. coli": "soluble"}
{"sequence": "MKGKITLFFTALCFGLTGCIAPPKGLEKERFSINSYREISPQDLTCHCKTVRLGGKIVNTTVLANQTKIEVLSLPVSSISAKPFVELQSDGRFIVYFNGFVEPENLKERYITVGGQLAGTEKGKIEQADYTYPVVQADKYRIWTLSTTYDYPTDDWDEDDDWGFFRWRHRLWYVQPEIHYYLN", "soluble on expression in E. coli": "not soluble"}
{"sequence": "MGSDKIHHHHHHMFRLAKEELEKLGAMITATEIYQQPGLWKEAHQLYFDQLEKIESFLKSIKEKHDFVHVVFTGAGTSDFVGQSIANYLNQVNDLKHIRFSAIGTVELVSRPHDYLQADLPTILVSFARSGNSPESVAAVEVAKQLVDKLYQVTITCAPEGKLALAAEGDVENLLLLQPAGSNDKGFAMTGSYSCMALTALLVFSPASQEEKAAWVEIIARLGQDVLDREDYVQDLINLDFERVIYLGSGGFYGLAHEAQLKILELTAGKIATMYESPLGFRHGPKSFINEKTLIFLFASNDAYTRQYDVDLLNEVHGDGIAERIVALSADKLVGTEAANFVLAEGGADLPDVFLTFPYILFAQTVSIMAAIKCNNLPDTPSPTGTVNRVVQGVIIHPLEK", "soluble on expression in E. coli": "not soluble"}
{"sequence": "SSNAKWDQWSSDWQTWNAKWDQWSNDWNAWRSDWQAWKDDWARWNQRWDNWAT", "soluble on expression in E. coli": "soluble"}
{"sequence": "MAMVPAKSLATTCVASKRMMWQIPEKWTMEEASTVPCVYSTVYYALVVRGQMKKGEKILIHAGSGGVGQAAISVALAHGLTVFTTVGSKEKREFLLKRFPKLQERNIGNSRDTSFEQLVLRETKGRGVDLVLNSLSEEKLQASIRCLGLNGRFLEIGKFDLSNNSPLGMSVFLKNTSFHGILLDSVMEGEEEMQNQVVSLVAEGIKTGAVVPLPTSVFNDQQVEQAFRFMASGKHIGKVVIK", "soluble on expression in E. coli": "soluble"}
{"sequence": "MVWLANPERYGQMQYRYCGKSGLRLPALSLGLWHNFGHVNALESQRAILRKAFDLGITHFDLANNYGPPPGSAEENFGRLLREDFAAYRDELIISTKAGYDMWPGPYGSGGSRKYLLASLDQSLKRMGLEYVDIFYSHRVDENTPMEETASALAHAVQSGKALYVGISSYSPERTQKMVELLREWKIPLLIHQPSYNLLNRWVDKSGLLDTLQNNGVGCIAFTPLAQGLLTGKYLNGIPQDSRMHREGNKVRGLTPKMLTEANLNSLRLLNEMAQQRGQSMAQMALSWLLKDDRVTSVLIGASRAEQLEENVQALNNLTFSTKELAQIDQHIADGELNLWQASSDK", "soluble on expression in E. coli": "soluble"}
{"sequence": "MSLTGREILEKLERREFTREVLKEALSINDRGFNEALFKLADEIRRKYVGDEVHIRAIIEFSNVCRKNCLYCGLRRDNKNLKRYRMTPEEIVERARLAVQFGAKTIVLQSGEDPYYMPDVISDIVKEIKKMGVAVTLSLGEWPREYYEKWKEAGADRYLLRHETANPVLHRKLRPDTSFENRLNCLLTLKELGYETGAGSMVGLPGQTIDDLVDDLLFLKEHDFDMVGIGPFIPHPDTPLANEKKGDFTLTLKMVALTRILLPDSNIPATTAMGTIVPGGREITLRCGANVIMPNWTPSPYRQLYQLYPGKICVFEKDTACIPCVMKMIELLGRKPGRDWGGRKRVFETVEGHHHHHH", "soluble on expression in E. coli": "soluble"}
{"sequence": "SAKNAYTKLGTDDNAQLLDIRATADFRQVGSPNIKGLGKKAVSTVYNGEDKPGFLKKLSLKFKDPENTTLYILDKFDGNSELVAELVALNGFKSAYAIKDGAEGPRGWLNSSLPWIEPKKT", "soluble on expression in E. coli": "soluble"}
{"sequence": "MGSDKIHHHHHHMNKNPEIQFRSPEEIKAYQESRLAEELLYLQNHSRFYQHLFQAYHIDIQQIKTIEDLQQIPVTTKTDLQLHNEDFICVSRDEIIDYVTTSGTLGDPVTFVLTSEDLDRLAYNEYLSFTTTGCSRQDILQLMTTIDRRFMAGLAYYMGARELGMGVARVGNGIPELQWDTIRRIHPTCGMVVPSFLIKLIEFAEKNHIDYHHCSMQKCVCIGEALRNPDFTLNTLGKRIHEKWDSLQLYSTYASTEMQSSFTECNEFHGGHLQPELIIVEFLDDNNQPVKEGEAGEVTITTLGVRGMPLLRFKTGDICYHYTEPCACGRNTIRLSSILGRKGQMIKYKGTTLYPPALFDILDNIPHIKNYIVEVYTNELGTDEILIRIGSENRSEAFAKEIKDLFRSKVRVAPSINFESAEYIAKIQMPPMSRKIVKFIDLR", "soluble on expression in E. coli": "not soluble"}
{"sequence": "MYQNILVPLDGSDNAYMALKHAVKLAQTFKSKLFLVNVIDITRLNAYSPAAYGGTLYTNLLKVAKDNSQDILDRGQQMASAAQVESLPIQVNSSPKASIATDIPKKYAIDLIVMGKSGTNAVSRILLGSTTAYVVQKAEVNVTVIN", "soluble on expression in E. coli": "not soluble"}
